PMC12786276

Biological target: CD47 (endogenously expressed in MDA-MB-231 cells) (human (endogenous in MDA-MB-231)) (UniProt Q08722)
UniProt Q08722, sequence (Q08722 19-323): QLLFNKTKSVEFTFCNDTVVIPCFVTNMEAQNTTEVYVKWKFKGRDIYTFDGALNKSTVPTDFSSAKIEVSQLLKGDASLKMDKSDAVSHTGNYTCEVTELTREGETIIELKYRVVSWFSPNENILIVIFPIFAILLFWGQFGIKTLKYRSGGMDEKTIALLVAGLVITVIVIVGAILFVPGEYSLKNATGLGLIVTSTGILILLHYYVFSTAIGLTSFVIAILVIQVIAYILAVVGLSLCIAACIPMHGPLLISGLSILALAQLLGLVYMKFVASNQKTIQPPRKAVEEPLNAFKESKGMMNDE

| Substance | phagocytosis of MDA-MB-231 cells by macrophages (flow cytometry) after PSFL-NK13 (4 µM, 48 h) |
| --- | --- |
| integrin αv subunit (endogenously expressed in MDA-MB-231 cells) (natural protein) | 3 fold |
| integrin β3 subunit (endogenously expressed in MDA-MB-231 cells) (from UniProt P05106 27-788) (natural protein) | 3 fold |
